The record followed here is paper PMC10786891, “Massively parallel profiling of RNA-targeting CRISPR-Cas13d”.

First the molecules themselves.
T1: EsCas13d, nuclease-dead (Eubacterium siraeum, UniProt B0MS50, R295A;H300A;R849A;H854A)
T1 sequence: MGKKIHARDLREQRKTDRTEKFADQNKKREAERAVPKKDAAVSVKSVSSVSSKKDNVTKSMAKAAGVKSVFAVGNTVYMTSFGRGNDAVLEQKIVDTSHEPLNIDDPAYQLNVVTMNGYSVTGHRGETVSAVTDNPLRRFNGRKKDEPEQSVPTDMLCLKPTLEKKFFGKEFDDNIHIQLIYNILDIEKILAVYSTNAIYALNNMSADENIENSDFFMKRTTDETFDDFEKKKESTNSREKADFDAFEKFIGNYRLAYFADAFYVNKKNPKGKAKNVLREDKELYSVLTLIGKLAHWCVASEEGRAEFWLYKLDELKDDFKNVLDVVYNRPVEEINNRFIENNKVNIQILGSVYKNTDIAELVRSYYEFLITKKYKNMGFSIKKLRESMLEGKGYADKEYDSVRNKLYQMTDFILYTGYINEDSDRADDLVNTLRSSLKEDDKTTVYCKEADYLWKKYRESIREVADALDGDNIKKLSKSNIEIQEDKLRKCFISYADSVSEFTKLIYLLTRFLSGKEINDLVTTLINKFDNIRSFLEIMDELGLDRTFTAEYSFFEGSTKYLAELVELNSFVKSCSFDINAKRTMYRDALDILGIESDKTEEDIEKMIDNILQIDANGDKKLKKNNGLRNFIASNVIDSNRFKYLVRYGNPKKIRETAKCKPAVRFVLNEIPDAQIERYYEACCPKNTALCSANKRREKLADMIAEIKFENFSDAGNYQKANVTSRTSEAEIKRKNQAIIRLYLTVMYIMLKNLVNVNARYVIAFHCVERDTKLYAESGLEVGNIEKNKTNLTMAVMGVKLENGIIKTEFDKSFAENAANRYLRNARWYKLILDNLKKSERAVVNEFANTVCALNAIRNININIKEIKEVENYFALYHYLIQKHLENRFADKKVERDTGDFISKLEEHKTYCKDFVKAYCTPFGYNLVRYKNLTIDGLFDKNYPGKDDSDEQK

B1: target 1 MT 5'PFS AGG 3'PFS UCG (mixed)
RNA 1: CACCCGUGCAAAAAUGCAGGGGUCUAAAACUGAGCGGAUAACCUCUCUAUGG
RNA 2: GGGAAUGGAUCCACAUCUACGAAUUCAGGCCAUAGAGAGGUUAUCCGCUCAUCGAGAUCGGAAGAGCACACGU
B2: target 1 MT 5'PFS CUA 3'PFS UUG (mixed)
RNA 1: CACCCGUGCAAAAAUGCAGGGGUCUAAAACUGAGCGGAUAACCUCUCUAUGG
RNA 2: GGGAAUGGAUCCACAUCUACGAAUUCCUACCAUAGAGAGGUUAUCCGCUCAUUGAGAUCGGAAGAGCACACGU
B3: target 1 C6U,G12C (mixed)
RNA 1: CACCCGUGCAAAAAUGCAGGGGUCUAAAACUGAGCGGAUAACCUCUCUAUGG
RNA 2: GGGAAUGGAUCCACAUCUACGAAUUCGUACCAUAGAGAGCUUAUCUGCUCACCGAGAUCGGAAGAGCACACGU
B4: target 1 MT 5'PFS AGG 3'PFS UCU (mixed)
RNA 1: CACCCGUGCAAAAAUGCAGGGGUCUAAAACUGAGCGGAUAACCUCUCUAUGG
RNA 2: GGGAAUGGAUCCACAUCUACGAAUUCAGGCCAUAGAGAGGUUAUCCGCUCAUCUAGAUCGGAAGAGCACACGU
B5: target 1 MT 5'PFS AGA 3'PFS UUA (mixed)
RNA 1: CACCCGUGCAAAAAUGCAGGGGUCUAAAACUGAGCGGAUAACCUCUCUAUGG
RNA 2: GGGAAUGGAUCCACAUCUACGAAUUCAGACCAUAGAGAGGUUAUCCGCUCAUUAAGAUCGGAAGAGCACACGU
B6: target 1 MT 5'PFS CUU 3'PFS UUC (mixed)
RNA 1: CACCCGUGCAAAAAUGCAGGGGUCUAAAACUGAGCGGAUAACCUCUCUAUGG
RNA 2: GGGAAUGGAUCCACAUCUACGAAUUCCUUCCAUAGAGAGGUUAUCCGCUCAUUCAGAUCGGAAGAGCACACGU
B7: target 1 MT 5'PFS GUG 3'PFS UCC (mixed)
RNA 1: CACCCGUGCAAAAAUGCAGGGGUCUAAAACUGAGCGGAUAACCUCUCUAUGG
RNA 2: GGGAAUGGAUCCACAUCUACGAAUUCGUGCCAUAGAGAGGUUAUCCGCUCAUCCAGAUCGGAAGAGCACACGU
B8: target 1 MT 5'PFS ACG 3'PFS UCC (mixed)
RNA 1: CACCCGUGCAAAAAUGCAGGGGUCUAAAACUGAGCGGAUAACCUCUCUAUGG
RNA 2: GGGAAUGGAUCCACAUCUACGAAUUCACGCCAUAGAGAGGUUAUCCGCUCAUCCAGAUCGGAAGAGCACACGU
B9: target 1 MT 5'PFS AGA 3'PFS UUC (mixed)
RNA 1: CACCCGUGCAAAAAUGCAGGGGUCUAAAACUGAGCGGAUAACCUCUCUAUGG
RNA 2: GGGAAUGGAUCCACAUCUACGAAUUCAGACCAUAGAGAGGUUAUCCGCUCAUUCAGAUCGGAAGAGCACACGU
B10: target 1 MT 5'PFS CUU 3'PFS UUA (mixed)
RNA 1: CACCCGUGCAAAAAUGCAGGGGUCUAAAACUGAGCGGAUAACCUCUCUAUGG
RNA 2: GGGAAUGGAUCCACAUCUACGAAUUCCUUCCAUAGAGAGGUUAUCCGCUCAUUAAGAUCGGAAGAGCACACGU
B11: target 1 MT 5'PFS ACG 3'PFS UCU (mixed)
RNA 1: CACCCGUGCAAAAAUGCAGGGGUCUAAAACUGAGCGGAUAACCUCUCUAUGG
RNA 2: GGGAAUGGAUCCACAUCUACGAAUUCACGCCAUAGAGAGGUUAUCCGCUCAUCUAGAUCGGAAGAGCACACGU
B12: target 1 MT 5'PFS UAC 3'PFS UUG (mixed)
RNA 1: CACCCGUGCAAAAAUGCAGGGGUCUAAAACUGAGCGGAUAACCUCUCUAUGG
RNA 2: GGGAAUGGAUCCACAUCUACGAAUUCUACCCAUAGAGAGGUUAUCCGCUCAUUGAGAUCGGAAGAGCACACGU
B13: target 1 MT 5'PFS GUA 3'PFS AUU (mixed)
RNA 1: CACCCGUGCAAAAAUGCAGGGGUCUAAAACUGAGCGGAUAACCUCUCUAUGG
RNA 2: GGGAAUGGAUCCACAUCUACGAAUUCGUACCAUAGAGAGGUUAUCCGCUCAAUUAGAUCGGAAGAGCACACGU
B14: target 1 MT 5'PFS GUA 3'PFS AUC (mixed)
RNA 1: CACCCGUGCAAAAAUGCAGGGGUCUAAAACUGAGCGGAUAACCUCUCUAUGG
RNA 2: GGGAAUGGAUCCACAUCUACGAAUUCGUACCAUAGAGAGGUUAUCCGCUCAAUCAGAUCGGAAGAGCACACGU
B15: target 1 MT 5'PFS CUA 3'PFS UUC (mixed)
RNA 1: CACCCGUGCAAAAAUGCAGGGGUCUAAAACUGAGCGGAUAACCUCUCUAUGG
RNA 2: GGGAAUGGAUCCACAUCUACGAAUUCCUACCAUAGAGAGGUUAUCCGCUCAUUCAGAUCGGAAGAGCACACGU
B16: target 1 MT 5'PFS GUG 3'PFS UCG (mixed)
RNA 1: CACCCGUGCAAAAAUGCAGGGGUCUAAAACUGAGCGGAUAACCUCUCUAUGG
RNA 2: GGGAAUGGAUCCACAUCUACGAAUUCGUGCCAUAGAGAGGUUAUCCGCUCAUCGAGAUCGGAAGAGCACACGU
B17: target 1 MT 5'PFS CCU 3'PFS UUC (mixed)
RNA 1: CACCCGUGCAAAAAUGCAGGGGUCUAAAACUGAGCGGAUAACCUCUCUAUGG
RNA 2: GGGAAUGGAUCCACAUCUACGAAUUCCCUCCAUAGAGAGGUUAUCCGCUCAUUCAGAUCGGAAGAGCACACGU
B18: target 1 MT 5'PFS AGA 3'PFS UUU (mixed)
RNA 1: CACCCGUGCAAAAAUGCAGGGGUCUAAAACUGAGCGGAUAACCUCUCUAUGG
RNA 2: GGGAAUGGAUCCACAUCUACGAAUUCAGACCAUAGAGAGGUUAUCCGCUCAUUUAGAUCGGAAGAGCACACGU
B19: target 1 MT 5'PFS CUU 3'PFS UUG (mixed)
RNA 1: CACCCGUGCAAAAAUGCAGGGGUCUAAAACUGAGCGGAUAACCUCUCUAUGG
RNA 2: GGGAAUGGAUCCACAUCUACGAAUUCCUUCCAUAGAGAGGUUAUCCGCUCAUUGAGAUCGGAAGAGCACACGU
B20: target 1 MT 5'PFS CCU 3'PFS UUA (mixed)
RNA 1: CACCCGUGCAAAAAUGCAGGGGUCUAAAACUGAGCGGAUAACCUCUCUAUGG
RNA 2: GGGAAUGGAUCCACAUCUACGAAUUCCCUCCAUAGAGAGGUUAUCCGCUCAUUAAGAUCGGAAGAGCACACGU
B21: target 1 MT 5'PFS UAA 3'PFS CCU (mixed)
RNA 1: CACCCGUGCAAAAAUGCAGGGGUCUAAAACUGAGCGGAUAACCUCUCUAUGG
RNA 2: GGGAAUGGAUCCACAUCUACGAAUUCUAACCAUAGAGAGGUUAUCCGCUCACCUAGAUCGGAAGAGCACACGU
B22: target 1 MT 5'PFS GUA 3'PFS AUG (mixed)
RNA 1: CACCCGUGCAAAAAUGCAGGGGUCUAAAACUGAGCGGAUAACCUCUCUAUGG
RNA 2: GGGAAUGGAUCCACAUCUACGAAUUCGUACCAUAGAGAGGUUAUCCGCUCAAUGAGAUCGGAAGAGCACACGU
B23: target 1 MT 5'PFS ACG 3'PFS UCG (mixed)
RNA 1: CACCCGUGCAAAAAUGCAGGGGUCUAAAACUGAGCGGAUAACCUCUCUAUGG
RNA 2: GGGAAUGGAUCCACAUCUACGAAUUCACGCCAUAGAGAGGUUAUCCGCUCAUCGAGAUCGGAAGAGCACACGU
B24: target 1 MT 5'PFS AGA 3'PFS UUG (mixed)
RNA 1: CACCCGUGCAAAAAUGCAGGGGUCUAAAACUGAGCGGAUAACCUCUCUAUGG
RNA 2: GGGAAUGGAUCCACAUCUACGAAUUCAGACCAUAGAGAGGUUAUCCGCUCAUUGAGAUCGGAAGAGCACACGU
B25: target 1 MT 5'PFS GUA 3'PFS AUA (mixed)
RNA 1: CACCCGUGCAAAAAUGCAGGGGUCUAAAACUGAGCGGAUAACCUCUCUAUGG
RNA 2: GGGAAUGGAUCCACAUCUACGAAUUCGUACCAUAGAGAGGUUAUCCGCUCAAUAAGAUCGGAAGAGCACACGU
B26: target 1 U8A,U19C (mixed)
RNA 1: CACCCGUGCAAAAAUGCAGGGGUCUAAAACUGAGCGGAUAACCUCUCUAUGG
RNA 2: GGGAAUGGAUCCACAUCUACGAAUUCGUACCACAGAGAGGUUAACCGCUCACCGAGAUCGGAAGAGCACACGU
B27: target 1 MT 5'PFS CCU 3'PFS UUG (mixed)
RNA 1: CACCCGUGCAAAAAUGCAGGGGUCUAAAACUGAGCGGAUAACCUCUCUAUGG
RNA 2: GGGAAUGGAUCCACAUCUACGAAUUCCCUCCAUAGAGAGGUUAUCCGCUCAUUGAGAUCGGAAGAGCACACGU

The target in this series is T1, EsCas13d, nuclease-dead. The experiment in a line: crRNA (strand 1, pre-loaded); Mg2+; 40 mM Tris-HCl pH 7.5, 150 mM NaCl, 6 mM MgCl2, 1 mM DTT, 0.1% Tween-20, 0.2 mg/ml BSA; 25 C; 10 min per concentration, then washed. The conditions noted are these: tags: His6-TwinStrep-SUMO cleaved; N-terminal SNAP kept (SNAP-Surface 488); label: 3' end held by stalled T7 RNA polymerase.
What is called Kd is a measure of binding affinity in units of concentration. Low values mean a tighter complex, high ones a looser complex. B1 had an equilibrium dissociation constant (Kd) of 51 ± 21 nM. To B2 belongs 5.7 ± 0.65 nM. Molecule B3 gave a dissociation constant (Kd) of 12.9 ± 1.1 nM. The same measure for B4: 30.5 ± 9 nM; for B5: 42 ± 11 nM; for B6: 14.2 ± 2.55 nM. The same measure for B7: 10.9 ± 1.1 nM; for B8: about 31 nM. As for B9, the Kd was about 22 nM. In the case of B10, the Kd came to 20.9 ± 4.25 nM. To B11 belongs 9.65 ± 2.55 nM; to B12, 7.55 ± 1.15 nM; to B13, 12.9 ± 1.15 nM.

Turning to B14, the equilibrium dissociation constant (Kd) turned out to be 14.8 ± 1.45 nM. The same measure for B15: 6.85 ± 2.1 nM; for B16: 10.5 ± 0.62 nM; for B17: 32.5 ± 9.5 nM. In turn, B18 showed a Kd of 27.5 ± 11 nM. The same measure for B19: 29.5 ± 7.5 nM; for B20: 14.3 ± 2.75 nM. B21 registered a dissociation constant Kd of 22 ± 11 nM. As for B22, the Kd came out at 14 ± 0.85 nM. To B23 belongs 24 ± 6 nM; to B24, 50 ± 18 nM. The same measure for B25: 14.1 ± 1.15 nM; for B26: 56 ± 9 nM.

For B27, the affinity, expressed as Kd, was 11.7 ± 2.5 nM.
